Laboratory results reported in paper PMC7133447.

Key:
[1] = biological target: transferrin receptor (TfR) on bEnd.3 cells (mouse) (UniProt Q62351); test: flow cytometry (bEnd.3 cells); conditions: Live-cell flow cytometry, 5e5 cells, 0-400 nM aptamer, PBS with 10% FCS, 0.1 mg/mL tRNA, 0.1 mg/mL BSA, 60 min, 37 C, aptamer folded in PBS with 5 mM MgCl2
[2] = biological target: T1, epithelial cell adhesion molecule (EpCAM) on MDA-MB-231 cells (human) (UniProt P16422); test: flow cytometry (MDA-MB-231 cells); conditions: Live-cell flow cytometry, 5e5 cells, 0-400 nM aptamer, PBS with 10% FCS, 0.1 mg/mL tRNA, 0.1 mg/mL BSA, 60 min, 37 C, aptamer folded in PBS with 5 mM MgCl2
T1 sequence: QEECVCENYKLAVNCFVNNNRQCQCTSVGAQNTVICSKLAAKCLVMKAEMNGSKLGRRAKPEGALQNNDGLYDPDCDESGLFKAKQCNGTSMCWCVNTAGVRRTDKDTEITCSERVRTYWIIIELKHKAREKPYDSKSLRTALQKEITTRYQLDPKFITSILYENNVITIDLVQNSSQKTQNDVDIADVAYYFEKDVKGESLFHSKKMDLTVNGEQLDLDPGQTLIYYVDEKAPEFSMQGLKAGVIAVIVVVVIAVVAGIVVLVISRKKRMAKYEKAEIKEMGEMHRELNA

[3] = biological target: transferrin receptor (TfR) / EpCAM on 4T1 cells (mouse) (UniProt Q62351); test: flow cytometry (4T1 cells); conditions: Live-cell flow cytometry, 5e5 cells, 0-400 nM aptamer, PBS with 10% FCS, 0.1 mg/mL tRNA, 0.1 mg/mL BSA, 60 min, 37 C; aptamer folded in PBS with 5 mM MgCl2
[4] = doxorubicin intercalated (non-covalent, about 2-3 per aptamer)

Sequence of transferrin receptor (TfR) on bEnd.3 cells (mouse) (Q62351 whole entry): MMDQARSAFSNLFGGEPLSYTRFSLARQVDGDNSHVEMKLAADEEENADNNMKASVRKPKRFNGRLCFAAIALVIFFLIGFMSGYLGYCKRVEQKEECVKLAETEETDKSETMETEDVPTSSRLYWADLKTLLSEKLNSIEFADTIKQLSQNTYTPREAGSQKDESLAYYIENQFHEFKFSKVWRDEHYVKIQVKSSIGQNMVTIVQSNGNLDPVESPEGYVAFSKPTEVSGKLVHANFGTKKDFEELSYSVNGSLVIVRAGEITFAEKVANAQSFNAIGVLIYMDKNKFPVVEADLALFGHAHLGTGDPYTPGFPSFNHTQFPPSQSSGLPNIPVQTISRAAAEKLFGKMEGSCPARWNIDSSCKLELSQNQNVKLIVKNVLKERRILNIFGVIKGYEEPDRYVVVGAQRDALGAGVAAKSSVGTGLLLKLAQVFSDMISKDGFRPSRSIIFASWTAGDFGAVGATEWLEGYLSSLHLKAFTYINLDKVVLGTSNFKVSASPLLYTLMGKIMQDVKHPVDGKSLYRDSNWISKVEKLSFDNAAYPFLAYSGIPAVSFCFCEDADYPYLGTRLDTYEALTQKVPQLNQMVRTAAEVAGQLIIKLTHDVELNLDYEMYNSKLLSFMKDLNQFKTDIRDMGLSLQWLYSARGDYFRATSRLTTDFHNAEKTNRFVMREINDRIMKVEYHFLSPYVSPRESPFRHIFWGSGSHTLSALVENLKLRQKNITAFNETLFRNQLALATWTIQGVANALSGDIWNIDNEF
Sequence of transferrin receptor (TfR) / EpCAM on 4T1 cells (mouse) (Q62351 whole entry): as above

| Sequence | Kd [1, 4] [nM] | Kd [2, 4] [nM] | Kd ([1]; cited from earlier work) [nM] | Kd ([2]; cited from earlier work) [nM] | Kd [3] [nM] |
| --- | --- | --- | --- | --- | --- |
| GCGCGGTACCGCGCTAACGGAGGTTGCGTCCGT [TEPP-DOX] | 119 | 536 | – | – | – |
| GCGCGGTACCGCGCTAACGGAGGTTGCGTCCGT [TEPP] | – | – | 110 | 85.6 | 27.6 |
| GCGCGTGCACGCGCTAACGGATTCCTTTTCCGT [TENN-DOX] | 865 | > 10000 | – | – | – |
| GCGCGTGCACGCGCTAACGGATTCCTTTTCCGT [TENN] | – | – | > 10000 | > 10000 | – |
